This is an account of results in patent CN117024595A (JIANGXI LECHENG XINSHENG BIOTECHNOLOGY RES CO LTD, dated 2023).

This assay has as its target T1, 带有His组氨酸标签蛋白的人ST2重组蛋白 (human, UniProt Q01638 19-328, limits assumed).
T1 construct: Captured on a His-capture BLI sensor; also called His-tagged recombinant human ST2 protein; not shown: His tag
T1 sequence (looked up): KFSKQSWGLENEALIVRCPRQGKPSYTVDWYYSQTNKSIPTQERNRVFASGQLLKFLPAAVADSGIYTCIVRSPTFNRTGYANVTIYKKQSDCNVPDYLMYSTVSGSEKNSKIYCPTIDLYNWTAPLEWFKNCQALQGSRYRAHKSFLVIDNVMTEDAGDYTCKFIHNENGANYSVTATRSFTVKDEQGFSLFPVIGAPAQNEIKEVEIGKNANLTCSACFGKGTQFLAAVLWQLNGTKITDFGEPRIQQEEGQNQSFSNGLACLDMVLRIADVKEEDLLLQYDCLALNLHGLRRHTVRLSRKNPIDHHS
In words: BLI, His-tagged human ST2 captured on HIS sensor, antibody in solution at several concentrations. Background: Biolayer interferometry detects binding as a change in optical thickness at a sensor tip.

B1: 检测抗体D12(抗人ST2的单克隆抗体) (antibody, V domains shown)
VH: QVTLKESGPGILQPSQTLSLTCSFSGFSLSTSGMGVGWIRQPSGKGLEWLAHIWWDDVKQYNPALKSRLTISKDTSSSQVFLKIASVDTADIATYYCARLGGNWDYFDYWGQGTTLTVSS
VL: DIVLTQSPASLVVSLGQRATISCRASESVDSCGVSFMKWLQQKPGQPPKLLIYVASKVESGVPARFGGSGSGTDFSLNIHPVEEDDFAVYFCQQSRKVPWTFGGGTKLEIK
notes: Mouse hybridoma monoclonal antibody purified from ascites on Protein G; HRP-labelled in one orientation of the sandwich ELISA; coupled to fluorescent microspheres in the strip; also called detection antibody
Turning to B1, the dissociation constant Kd (commonly the concentration at which binding is half-saturated) is 0.02 nM.
